Data reported in a protein production outcome set (Wang et al. 2014).

assay: label from the status in PepcDB records
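Further: failed if final PepcDB status was selected cloned or expressed and not failed if soluble or beyond.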

Sequence	protein production
MRALRGWPLAWFLLALAFAIRLLSLGSYPLMDTTEARYGEVARKMAELGDWITPWYDVGVPFWGKPPLAFWLSAGGQLLLGANEFASRLPHWLLGVLVLWLVWDWQAREDRRQARIACVLLGSSALFFVASGAVMTDMALALALVLAMRGFWLGLHGAEGIRRREGWLMFLGLGLGLLAKGPLTLILAGLPIGLWALLEWRWRALWRGLPWIRGSLLMLLVAAPWYLLAELKTPGFLEYFLLGEHWQRFVTAGWDGDRYGNAHAYPYGSVWLFLLAAAFPWSLWLPLLLWLGWRQRGEVVDGVASRRRYWLFWGLAPCLFFTFAGNVLWTYVLPGLPALALLAADLLRAPLARSAWLRRGGLACLALTPLLFALFLGSLLLGSRAEQKSTAALLASDAGWRERPLVFWPKRPYSAVFYSGGRAQRAEDSELAGWLRRDALLAIRSRSFGALPDEVRQRLRCRPPVGQYQLCQGVAPPG	failed
MRAMSKFSRIGLAGVVGAALHAILANHLAPAVQQRLPIGRVSLTFFLALLSALAAGAVLARLAPRARVAALAVAALAFLLLAAATTWLQQCTPAQLAAIDAATPLGCNLGLYNRARAHLPPDGRPAELAPGVWFDRHGLSYACLPPEAQATHLRVALADYALALVGMSLGALLGARQRRRRDQD	failed
MRASKASADESLNVFPVPADSPGSPIAGANGVPKEISLPGEARPFHLANSAFWPYVLLFVSSLTLSGCAGMVDMVRDVTRSLADIDVSGITDLFGSGEVQMSPEQIAQLEVIPSTRPGWEASVEESPAAVFLPVFGDGAVYAGGPDGRLVRFDPASGKASGVIDTKHPLAGGIGTGDGMLLVGTFKGEVLAFDEKSGKPKWTANLSTEVLSPPHAGMGVVVVRTGDGRIYGLDSESGKRKWVYQGATPSLTVRSFAGALIADDRVYAGFAGGRLVALNLSNGSLVWEAMVSRPRGATELERISDVTSLPVLDEQQVCAVAYQGRIACFDITAGNQIWTRDVSSNAGLAMDDNYVYVSENRGGIVAYDKRDGTSIWAQDLLNGLKLSAPLVHGARIVVGDSQGYVNFIRKDNGAIIARSGTDESAITARPISLPNGIAVQTRKGGVFAFGA	failed
MRAYQIMSRQVVSIRPEAPITDAIKVMLAHHISGLPVVDSADNLVGIICESDFLRRSEIGTEHERNRLLSLLLGAERVASEFVKERGRKVEQVMTRQPVTTNEQAPLDEVADVMERRHLNHIPVMRADRIVGIITRSDFLSAVAGPLTGASGYSGSDNQLRRAVLAALAKTPWQPIGLNVRVRDGAVSLRGVIRGESAHRAAIVACENVPGVLRVDDRLCVQPSRPDPEDDYGGGDFVSLQMEPSTLDDEPL	failed
MRDGVSPEQPKVSVIMPVRDGERWVAEAIRSVQSQTFRDFELLVIDDGSADATPAILAEAAAADPRIFVLTQHRDGLVAGLNRGLAAARAPLIARLDADDIALPDRLARQVDYMTTHPAVVLLGGWATIVDENGQPKGRDMRPNPNDLRATLMKKSPFIHPTVMFRAEAARRVGGYHAAFEAGEDYDFWLRLADIGEVAILPELLIRYREHSASVTRTRQLRQIYSARLAKLAAAARQAGQPDPSAPLTTPPDWHDASPGPFERDSSRLFRMLELADPAVAARIAPSAIDLNAITSQLGTLTAGERKFAQAALLNLLRANKLPSLAARWSAVFLLVRLGPLKAIKAARQLRNR	failed
MRDLVSCFSENSINVTHPLSISSSSSSCSKYSTNNVCISPSLIPSIQTSITSIYRITLSKHLIIKVTWCNPHNNNGLSISVASADQNPSTTLKLNTSSRFFRKKKGNKSVDSDLGKIEVFWDLSSAKYDSNLCGPEPINGFYVIVLVDGQMGLLLGDSSEETLRKKGFSGDIGFDFSLVSRQEHFTGNNTFYSTKVRFVETGDSHEIVIRCNKETEGLKQSNHYPVLSVCIDKKTVIKVKRLQWNFRGNQTIFLDGLLVDLMWDVHDWFFSNQGACGRAVFMFRTRNGLDSSRLWLEEKIVKKDQQDKLDFSLFIYACKT	failed
MRDRVRWRVLSLPPLAQWREVMAALEVGPEAALAYWHRGFRRKEDLDPPLALLPLKGLREAAALLEEALRQGKRIRVHGDYDADGLTGTAILVRGLAALGADVHPFIPHRLEEGYGVLMERVPEHLEASDLFLTVDCGITNHAELRELLENGVEVIVTDHHTPGKTPPPGLVVHPALTPDLKEKPTGAGVAFLLLWALHERLGLPPPLEYADLAAVGTIADVAPLWGWNRALVKEGLARIPASSWVGLRLLAEAVGYTGKAVEVAFRIAPRINAASRLGEAEKALRLLLTDDAAEAQALVGELHRLNARRQTLEEAMLRKLLPQADPEAKAIVLLDPEGHPGVMGIVASRILEATLRPVFLVAQGKGTVRSLAPISAVEALRSAEDLLLRYGGHKEAAGFAMDEALFPAFKARVEAYAARFPDPVREVALLDLLPEPGLLPQVFRELALLEPYGEGNPEPLFLLFGAPEEARRLGEGRHLAFRLKGVRVLAWKQGDLALPPEVEVAGLLSENAWNGHLAYEVQAVDLRKPEALEGGIAPFAYPLPLLEALARARLGEGVYVPEDNPEGLDYARKAGFRLLPPEEAGLWLGLPPRPVLGRRVEVALGREARARLSAPPVLHTPEARLKALVHRRLLFAYERRHPGLFSEALLAYWEVNRVQEPAGSP	not failed
MRDTLPEWYKTKKNICDQMTEEINLWGYDMIETPTLEYYETVGVVSAILDQQLFKLLDQQGNTLVLRPDMTAPIARLVASSLKDRAYPLRLAYQSNVYRAQQNEGGKPAEFEQLGVELIGDGTASADGEVIALMIAALKRAGLSEFKVAIGHVGYVNALLMDVVGNEQRADRLRRFLYEKNYVGYREHVKSLNLSTIDKSRLMNLLSLRGGRAAIEEARGLIQTEKGKTALAEMTKLYEVLESYGASEYVKFDLTLVLHMSYYTGVVFEGYGNRLGVPLCSGGRYDELLSKFHRPAQATGFGVRIDLLVEALNGEIISN	not failed
MRDYATTAAGFDLQRTAAATLSGTLQALNACVECCDRHALPGRIALFWEGKDGSRASYTFSELKALSGRFANFLQAQGVRPGDCVAGLLPRTPELLVTILGAWRLGAVYQPLFTAFGPKAIEHRVATAGSKVLVTDAANRDKLDELADPPLAVTVGGPKGQGIRRGDFSFWAELERYPAEFEPVPRSGEDPFLMMFTSGTTGLAKPVPVPLKAILAFVGYLREAVDLRPEDAFWNLADPGWAYGLYYAVAGPLAMGHPTTFYEGPFSVESTCRIIRDYGITNLAGSPTAYRLLMAAGAAAETALKGRLRAVSSAGEPLTPEVIRWFADRLGTTIHDHYGQTELGMVLCNHHALAHPVRVGAAGFACPGHRVVVLDDDLNELPPGQPGILALDRRRSPLMWFPGYQGLETAAFVGDYYLSGDTVELNEDGSISFVGRADDVITTSGYRVGPFDVESALIEHPAVMEAAVIGKPDPERTELVKAFVVLCAGHRPTPELADALQRYVRQRLSAHAYPREIEFLEELPKTPSGKIQRFLLRNQEIARQREAAPRAAAAN	failed
MREESIGRIAKDFLGHEGFQLTEWGGGNLNYLYRVDSTKESYILKYAPPYIRCLGEGYPLSSERLRYEILGLKAANETIPEFAPKLFYVAKEGVVMEYLEGFKLLRQAFIQGEKIPHLAEHLAEMLARFLVKNSFWALNEGERKKLLEQSENSLMRRLSEDYIFTFPFMEHPTNQKNPTSAPSVREIHQDKEWLGAILWLKSRFSTAKEGLLHGDLHTGSLMIKGEQIKMIDFEFSFVGPLSFDLGAILANWLIAYRTHKERGEVGGYSQWLREEMEEFIERFKEQFEFWAGEHGAPQIGIKGYLEALLIEAWGMAGVKIARRILGAAGVEDITSLESPLKEEVERRLLVLSREMTLRAALGIIPIQKGGREAYSWLF	failed
MREGSCPRLARCPGANWGHGRILHTRLHLASLPRPCYFFVTAYINGRETITASCKRSGVSPIPFRPMSPDFPLAPLDLAIIVGYFAVVGIIGYVVAQRIESGEDLFLAGRTLTWGTIGFSLFASNISSTTLIGLAGDAYRTGIAVSNYEWMAGIVLVFIAVFFVPFFIRSGLTTIPEYLEKRFDVRSRKYFSGLTIFTSVIIDTAGGIYAGTLVIKTFFPDLIPGMGPEMDFYVTCFILALIAGVYTAAGGLAAVVYTDILQAVILLVGSVFIAGITFAEFDFSWAQATAQLPEGHLSLMRPMGAEGLPWLGTLVGVPILGFYYWGLNQYIVQRILGARDLDNARWGAMLGGLLKLLPLFIMVLPGAFALQLYPDLGNPDQVFPTLVTDLLPVGIVGLVMAGLIAAIMSTIDSTLNSASTLITIDFVKPRWPDLTPQQVGTVGRVTTIILMLFAAVWAPQIREFPGLWSYIQSVLSYLVPPVVAVFLLGIFWPRTNGSGAFATLLGGHALSIAVFLCAQDGLLFADAPIDLHFTIIAGILTALCLGMLVAFSLTLGPPPAEEEIDDLTWANRVLETGPAMAWYKNYRVHAATVLALTAVMLVVFW	failed
MRELLKVTLIVMLVLINAFFVACEFAMVKLRSSRIDTMITEGNNNAKRCKIIKDNLNSYLSACQLGITLCSLALGWMGESTVKELILPIVSVFNLSESIIYTISISISFLIITMMEVVIGELVPKALALYNTEKIMLSTSFLLVGFYKLTYPIIYFFNLSTDLFLKPFGYSQADEVDEPHTGDEIRLLVEESYKSGLIDESEQRLVDNIFEFEEKKIREIMVPRTDMVCIYESDSEEKILAILKEEGVTRYPVCRKNKDDILGFVHIRDLYNQKINENKIELEEILRDIIYISENLTIDKALERIRKEKLQLAIVVDEYGGTSGVVTIEDILEEIVGEIQDEFDKEETHIKKIGAGSYLVDGTESINYINKYFGLDIEHDGFDSIGGWISYMLGSNIKVNQSVTFENYNFTILELDKLRVVKLIIKSVI	failed
MREPYYKKLLGIKNYLIRKNYPEELEILIPKYVEENKELRGCIDCLSCLSVCPAREVSDYPGPTFMRQLARFAFDKRDEDGREITAYFENIYNCTTCAKCVEVCPKEIDIVHRAIEKLRALAFSKGYLEHHHHHH	failed
MRFIITLFLILQLTTLAFSAHSRDKIGLVLSGGGAKGSAHIGVLKVLEQHNIPIDYVVGTSIGAYVGGMYALGYEVSEIEAIMLGMPWDESYSDFIPRESLAYDKKQHRDRYNISIRLGYSDGEFKVPHGLLLGQSAYQILQRSTDTVRSFDSFDDLAIPYRAVASDIATAKMVVLDSGSINEAMKASAAVPGIVAAVEIDGKTLVDGGITNNMPIDVIKAMGADIVIAIDIGSPLAEQSELTSTVSVLNQLSTILTNNTSLAQKALLTDKDILLRPAIDKLSTTDWSVMPEALKLGEQEAQAQSQALMKLAISDVDYQAYKNQKKLKAKKWFDALPRHITKIKINNNSKVENDIIEKVFAVELGKKLTKEALDLAINRVYALDKFEQVTVEFDDSPEGRIITLTTQAKSWGPNYFDFGFNLKTDFSDQSITSINMSYLMTNVSMNGGRWLNELELGWESLLASEFYQPLDHSHDIYSRARVSFAQDKWEKTSFREELRNEYYQATLALGYDYSFKGIIELGVIAETGDLSLDKPGTDDFDYDSYGSFITFGYDTLDSINFPTNGNKLLIEVKWLKDEYSPQLSDVEKDTATTFALDWRGAIGIRGHTFVGIASFATIDNESDFSVHVTELGGFLNLSGYQEDALIGVHKVFAAVVYQYDLGREIPGGSGLPIYLGTSLEAGNVWGGEDRIRYNDLISSGSIYLGTDTSFGPAVLGMGFATSGEHSFFLSIGKNW	failed
MRFSQLLLALCCLTFGAQADVFIKQEDMDLKQALEAIAKDMQLKLVSDIDSKTSSQPITQTLSGSGPMLLSKLSSVFDFDWYTFGGTLTIQSGQQYANYTYKPKNISPSQLLSEMKGAFKTNSTTKIKLVERGHSLLFSGTRKFVNDAMGYASMVDRNQFLEKGNNLEVARIEFNYVSVMDRNIATYDGQVNFPGAQSLIAAAITNIGQFTNLNDEELTSRAYRVKLSQGEKQALEEDEKSTKVQALPGTNALLIRGTQEEVKLAKRIAALIDVKRRQLLFSLKVYDISAERKENLGIDSGWLNGNRGIYDIVVPPFTETKDFVKNFQALYSNGIARSVYETNLVALENQQSQFGKKQTATLTLISDKQVKTEKIEADNSLYVTGRLLPSGQVQARIQYVEESLDEDDNEDSNRPPRVSSQSLNSEVYIQPNQTVILGGFDNTVTQQQESGVPIISSIPLLGELFKYTSESKHKYKRYVSISFQVIE	failed
